Assay results reported in patent US20260242730A1 (POINTLOMA BIOSCIENCES, published 2026).

T1: recombinant human TROP2 protein (human, UniProt P09758 27-274)
T1 chain: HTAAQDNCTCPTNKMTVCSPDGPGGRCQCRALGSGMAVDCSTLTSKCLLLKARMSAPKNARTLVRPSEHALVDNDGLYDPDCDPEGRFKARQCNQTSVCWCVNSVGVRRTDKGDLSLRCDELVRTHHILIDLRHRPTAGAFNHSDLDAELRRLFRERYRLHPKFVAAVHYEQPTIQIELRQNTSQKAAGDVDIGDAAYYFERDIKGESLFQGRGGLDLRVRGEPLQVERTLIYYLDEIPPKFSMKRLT

T2: human TROP2 (antigen of panning and clone screening) (human, UniProt P09758 27-274, limits assumed)
T2 construct: also called human TROP2-His protein; TROP2-expressing CHOK1 cells
T2 sequence (looked up): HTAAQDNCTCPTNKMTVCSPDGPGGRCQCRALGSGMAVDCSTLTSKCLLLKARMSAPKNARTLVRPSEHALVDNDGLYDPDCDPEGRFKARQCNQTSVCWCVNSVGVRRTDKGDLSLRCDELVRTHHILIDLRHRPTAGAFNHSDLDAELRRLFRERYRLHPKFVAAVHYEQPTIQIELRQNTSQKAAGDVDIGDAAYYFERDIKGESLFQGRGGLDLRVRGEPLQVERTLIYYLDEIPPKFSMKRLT

B1: TROP2 CAR with anti-TROP2 VHH #TP6, on γδ T cells (other)
chain: QLQLVESGGGLVQPGGSLRLSCAASGTLDYWTVGWFRQAPGKEREGVSCISSSDSSTYYADSVKGRFTISRDNAKNTVYLQMNSLKPEDTAVYYCAAGSLGYCSRSTPQYEYDFWGQGTQVTVSSTTTPAPRPPTPAPTIASQPLSLRPEACRPAAGGAVHTRGLDFACDIYIWAPLAGTCGVLLLSLVITLYCKRGRKKLLYIFKQPFMRPVQTTQEEDGCSCRFPEEEEGGCELRVKFSRSADAPAYQQGQNQLYNELNLGRREEYDVLDKRRGRDPEMGGKPRRKNPQEGLYNELQKDKMAEAYSEIGMKGERRRGKGHDGLYQGLSTATKDTYDALHMQALPPR
B2: TROP2 CAR with anti-TROP2 VHH #TP14, on γδ T cells (other)
chain: EVQVVESGGGLVQPGGSLRLSCAVSGFTLDWYAIGWFRQAPGKEHEGVACIDPSERSTYADPVKGRFTISRDNAKNTVHLQMNSLKPEDTAVYYCAADTLPCFFYGSMWPPPDNWGQGTQVTVSSTTTPAPRPPTPAPTIASQPLSLRPEACRPAAGGAVHTRGLDFACDIYIWAPLAGTCGVLLLSLVITLYCKRGRKKLLYIFKQPFMRPVQTTQEEDGCSCRFPEEEEGGCELRVKFSRSADAPAYQQGQNQLYNELNLGRREEYDVLDKRRGRDPEMGGKPRRKNPQEGLYNELQKDKMAEAYSEIGMKGERRRGKGHDGLYQGLSTATKDTYDALHMQALPPR
B3: TROP2 CAR with anti-TROP2 VHH #TP2, on γδ T cells (other)
chain: EVQLVESGGGLAQPGGSLRLSCAASGFTFSTYAMSWARQAPGKGLEWVSGIYADGSGTYYADSVKGRFTISRDNAKNTLYLQMNSLKPEDTALYYCAQGYSDYDRRLGEYDYWGQGTQVTVSSTTTPAPRPPTPAPTIASQPLSLRPEACRPAAGGAVHTRGLDFACDIYIWAPLAGTCGVLLLSLVITLYCKRGRKKLLYIFKQPFMRPVQTTQEEDGCSCRFPEEEEGGCELRVKFSRSADAPAYQQGQNQLYNELNLGRREEYDVLDKRRGRDPEMGGKPRRKNPQEGLYNELQKDKMAEAYSEIGMKGERRRGKGHDGLYQGLSTATKDTYDALHMQALPPR
B4: TROP2 CAR with anti-TROP2 VHH #TP12, on γδ T cells (other)
chain: QVQLVESGGGLVQPGGSLRLSCAASRFTLDYYAIGWIRQAPGKEREGVSCISSSGGSTNYADSVKGRFTISRDNAKNTVYLQMNSLKPEDTGVYYCAATTYACSGYVPRAYEYDYWGQGTQVTVSSTTTPAPRPPTPAPTIASQPLSLRPEACRPAAGGAVHTRGLDFACDIYIWAPLAGTCGVLLLSLVITLYCKRGRKKLLYIFKQPFMRPVQTTQEEDGCSCRFPEEEEGGCELRVKFSRSADAPAYQQGQNQLYNELNLGRREEYDVLDKRRGRDPEMGGKPRRKNPQEGLYNELQKDKMAEAYSEIGMKGERRRGKGHDGLYQGLSTATKDTYDALHMQALPPR
B5: TROP2 CAR with anti-TROP2 VHH #TP9, on γδ T cells (other)
chain: QVQLVESGGGLVQPGGSLRLSCAASGFSLDYWAIAWFRQAPGKEREGVSCSGSRGSTHYADSVKGRFTISRDNAKNTVYLQMNSLKPEDAGVYYCAVGSTLYSLTPYEYDYWGQGTQVTVSSTTTPAPRPPTPAPTIASQPLSLRPEACRPAAGGAVHTRGLDFACDIYIWAPLAGTCGVLLLSLVITLYCKRGRKKLLYIFKQPFMRPVQTTQEEDGCSCRFPEEEEGGCELRVKFSRSADAPAYQQGQNQLYNELNLGRREEYDVLDKRRGRDPEMGGKPRRKNPQEGLYNELQKDKMAEAYSEIGMKGERRRGKGHDGLYQGLSTATKDTYDALHMQALPPR
B6: anti-TROP2 #TP5 VHH (VHH)
VHH: QLQLVESGGGLVQPGGSLKLSCAASGFTLDYWTIGWFRQAPGKEREGVSCISSSDGSTYYADSVKGRFTISRDNAKRTVNLQMNSLKPEDTAVYYCAAGSLGYCSRSTPQYEYDFWGQGTQVTVSS
B7: anti-TROP2 #TP7 VHH (VHH)
VHH: QLQLVESGGGLVQPGGSLRLSCAASGFSLEHWTIGWFRQAPGKEREGVSCISSSDASTYYADSVKGRFTISRDNAKKSVYLQMNSLKLEDTAVYYCAAGSLGYCSRSTPQYEYDYWGQGTQVTVSS
B8: anti-TROP2 #TP8 VHH (VHH)
VHH: QLQLVESGGGLVQPGGSLRLSCAASGFTLDYWTIGWFRQAPGKEREGVSCVSSSGGITYYADSVKGRFTISRDNEKRTVYLQMNSLKPEDTAVYYCAAGSLGYCSRSTPQYEYDYWGQGTQVTVSS
B9: anti-TROP2 #TP9 VHH (VHH)
VHH: QVQLVESGGGLVQPGGSLRLSCAASGFSLDYWAIAWFRQAPGKEREGVSCSGSRGSTHYADSVKGRFTISRDNAKNTVYLQMNSLKPEDAGVYYCAVGSTLYSLTPYEYDYWGQGTQVTVSS
B10: anti-TROP2 #TP10 VHH (VHH)
VHH: QVQLVESGGGLVQPGGSLRLSCAASGFRLDHWAIGWFRQAPGKEREGVSCSGSDESTYYADSVKGRFTISRDNAKNTVYLQMNSLKPEDTGVYYCAVGSTWYSLTPYEYDYWGQGTQVTVSS
B11: anti-TROP2 #TP11 VHH (VHH)
VHH: QVQLVESGGGLVQPGGSLRVSCAASGFRLDYYAIGWFRQAPGKEREGVSSINYSSGSTVYADSVKGRFTISRGNAKNTVYLQMNSLKPEDTAVYYCAVGTVVTSLAPYEYDYWGQGTQVTVSS
B12: anti-TROP2 #TP12 VHH (VHH)
VHH: QVQLVESGGGLVQPGGSLRLSCAASRFTLDYYAIGWIRQAPGKEREGVSCISSSGGSTNYADSVKGRFTISRDNAKNTVYLQMNSLKPEDTGVYYCAATTYACSGYVPRAYEYDYWGQGTQVTVSS
B13: anti-TROP2 #TP13 VHH (VHH)
VHH: EVQLVESGGGLVQPGGSLRLSCALSGFTKDYYGIGWFRQAPGKEREGVSCISVSGSSTNYADSVKGRFTISRDNAKNTVYLQMNSLKPEDTGVYYCAAAFMGSDYVVPEMSREYDYWGQGTQVTVSS
B14: anti-TROP2 #TP14 VHH (VHH)
VHH: EVQVVESGGGLVQPGGSLRLSCAVSGFTLDWYAIGWFRQAPGKEHEGVACIDPSERSTYADPVKGRFTISRDNAKNTVHLQMNSLKPEDTAVYYCAADTLPCFFYGSMWPPPDNWGQGTQVTVSS
B15: anti-TROP2 #TP15 VHH (VHH)
VHH: QVQLVESGGGLVQPGGSLRLSCAVSGDIFSFYSMGWYRQAPGEQRELVAHITSGGSTHYADSVKGRFTISRDNAKNTVYLQMNSPKPEDTAVYYCNADLDYWVDSMGPYWGQGTQVTVSS
B16: anti-TROP2 #TP16 VHH (VHH)
VHH: QVQLVESGGGLVQPGGSLRLSCAASGFAFSFYVMTWYRQAPGKQREQVAAITSYGGANYADSVKGRFTISRDNAKNTVYLQMNALTSEDTAVYSCNAHLGPYDYWGQGTQVTVSS
B17: anti-TROP2 #TP17 VHH (VHH)
VHH: EVQLVESGGGMVQPGGSLRLSCAFSGLTFSNYAMTWYRQAPGKERELVAGTPSPGGTTTYADSVKGRFTISRDNAEDTVYLQMNSLKPEDTAVYYCHARWMWPSDNAGMGYWGKGTLVTVSS
B18: anti-TROP2 #TP18 VHH (VHH)
VHH: QVQLVESGGGLVQPGGSLRLSCAASSSIFSIAIMGWYRQAPGKQRELVATISATDVTHYADSVKGRFTISRDDAWNAVYLQMDSLKAEDTAVYYCNSYLLQQRVPWGQGTQVTVSS
B19: anti-TROP2 #TP19 VHH (VHH)
VHH: EVQVVESGGGLVQPGGSLRLSCAASRSVFNIAIMGWYRQAPGKQRELVASISATDVTSYADSVKGRFTISRDDAWNAVYLQMDSLKSEDTAVYYCNSYLLQQRVPWGQGTQVTVSS
B20: anti-TROP2 #TP20 VHH (VHH)
VHH: EVQVVESGGGLVQPGGSLRLSCAASGNIKSTAVMGWHRQAPGKEREWVAIITTGEDRFSGDRLQYADSVKDRFTISRDNAKNTVYLQMNSLKPEDTAVYYCNVDVLYMADGRYARSEFWGQGTQVTVSS
B21: anti-TROP2 #TP1 VHH (VHH)
VHH: EVQVVESGGGLAQPGGSLRLSCAASGFWFSTYAMSWARQAPGKGLEWVSGIYADGSATYYADSVKGRFTISRDNAKNTLYLHMNSLKPEDTALYYCAQGYSDYDRRVGGYDYWGQGTQVTVSS
B22: anti-TROP2 #TP2 VHH (VHH)
VHH: EVQLVESGGGLAQPGGSLRLSCAASGFTFSTYAMSWARQAPGKGLEWVSGIYADGSGTYYADSVKGRFTISRDNAKNTLYLQMNSLKPEDTALYYCAQGYSDYDRRLGEYDYWGQGTQVTVSS
B23: anti-TROP2 #TP4 VHH (VHH)
VHH: QLQLVESGGGLVQPGGSLRLSCAASGFTLDDYAMRWFRQAPGKAREGVSCISRSDGTTYYADSVKGRFTISRNNAENTVYLQMNSLKPEDTAVYYCAADSLGCNGYSDWGVDYWAKGTLVTVSS
B24: anti-TROP2 #TP6 VHH (VHH)
VHH: QLQLVESGGGLVQPGGSLRLSCAASGTLDYWTVGWFRQAPGKEREGVSCISSSDSSTYYADSVKGRFTISRDNAKNTVYLQMNSLKPEDTAVYYCAAGSLGYCSRSTPQYEYDFWGQGTQVTVSS

Tests used:
[1] = target: T1, recombinant human TROP2 protein; assay: binding of TROP2 protein to binder-expressing γδ T cells
[2] = target: T2, human TROP2 (antigen of panning and …); assay: positive phage clones from panning on human TROP2-His protein or on TROP2-expressing CHOK1 cells, ELISA
Source text: After confirming successful immunization with TROP2 protein, PBMC was isolated and used for construction of a phage display library with the size of 2.42×10⁹ cfu. TROP2 VHH binders were isolated from the phage display library using solid phase panning on human TROP2-His protein and cell-based panning on the engineered, TROP2-expressing CHOK1 cells in two parallel discovery campaigns. […] Stringency was increased during successive rounds by decreasing antigen concentration, increasing the number and duration of washes, and/or changing the duration of selections. The positively identified phages were diluted and spread on a petri dish to grow single colonies. Individual phage clones were selected and amplified. […] After three rounds of screening on TROP2 CHOK1 cells, a total of 384 clones were selected, of which 163 clones were TROP2-specific as tested by ELISA. After sequencing the positive clones, 9 unique sequences were obtained based on amino acid sequences. In combination, a total of 20 unique sequences were identified.

Row | Binder | EC50 [1] | binding result [2]
1 | B1 | 17.7 nM | –
2 | B2 | 3.65 nM | –
3 | B3 | 3.43 nM | –
4 | B4 | 14.4 nM | –
5 | B5 | 18.1 nM | –
6 | B6 | – | binds
7 | B7 | – | binds
8 | B8 | – | binds
9 | B9 | – | binds
10 | B10 | – | binds
11 | B11 | – | binds
12 | B12 | – | binds
13 | B13 | – | binds
14 | B14 | – | binds
15 | B15 | – | binds
16 | B16 | – | binds
17 | B17 | – | binds
18 | B18 | – | binds
19 | B19 | – | binds
20 | B20 | – | binds
21 | B21 | – | binds
22 | B22 | – | binds
23 | B23 | – | binds
24 | B24 | – | binds
